Numbered stars: 1 amine (or outer) side, 2 acyl side, 3 side chain; on linkers, the order of the positions; unused ones are H or OH. Square brackets hold non-standard residues; d marks the D form. Side chains are listed from the residue outwards. Ends that are not written are not given here. * marks the point of attachment. C18 diacid = O=C(O)CCCCCCCCCCCCCCCCC(=O)*; γGlu = O=C(O)[C@H](CCC(=O)[*:2])N[*:1]; AEEA = NCCOCCOCC(=O)O; Aib = CC(C)(N)C(=O)O
B1: N^ε16-[(4S)-4-carboxy-4-[[2-[2-[2-[[2-[2-[2-[[(4S)-4-carboxy-4-[[(4S)-4-carboxy-4-(17-carboxyheptadecanoylamino)butanoyl]amino]butanoyl]amino]ethoxy]ethoxy]acet … (peptide)
peptide: H[Aib]HGTFTSDLSKYLEK([γGlu-AEEA-AEEA-γGlu-γGlu-C18 diacid])RRAREFVAWLLST-NH2
modifications: N-terminus assumed
SMILES: CC(C)C[C@H](NC(=O)[C@H](Cc1c[nH]c2ccccc12)NC(=O)[C@H](C)NC(=O)[C@@H](NC(=O)[C@H](Cc1ccccc1)NC(=O)[C@H](CCC(=O)O)NC(=O)[C@H](CCCNC(=N)N)NC(=O)[C@H](C)NC(=O)[C@H](CCCNC(=N)N)NC(=O)[C@H](CCCNC(=N)N)NC(=O)[C@H](CCCCNC(=O)CC[C@H](NC(=O)COCCOCCNC(=O)COCCOCCNC(=O)CC[C@H](NC(=O)CC[C@H](NC(=O)CCCCCCCCCCCCCCCCC(=O)O)C(=O)O)C(=O)O)C(=O)O)NC(=O)[C@H](CCC(=O)O)NC(=O)[C@H](CC(C)C)NC(=O)[C@H](Cc1ccc(O)cc1)NC(=O)[C@H](CCCCN)NC(=O)[C@H](CO)NC(=O)[C@H](CC(C)C)NC(=O)[C@H](CC(=O)O)NC(=O)[C@H](CO)NC(=O)[C@@H](NC(=O)[C@H](Cc1ccccc1)NC(=O)[C@@H](NC(=O)CNC(=O)[C@H](Cc1c[nH]cn1)NC(=O)C(C)(C)NC(=O)[C@@H](N)Cc1c[nH]cn1)[C@@H](C)O)[C@@H](C)O)C(C)C)C(=O)N[C@@H](CC(C)C)C(=O)N[C@@H](CO)C(=O)N[C@H](C(N)=O)[C@@H](C)O
B2: N^ε28-[2-[2-[2-[[2-[2-[2-[[(4S)-4-carboxy-4-[[(4S)-4-carboxy-4-[[(4S)-4-carboxy-4-(17-carboxyheptadecanoylamino)butanoyl]amino]butanoyl]amino]butanoyl]amino]eth … (peptide)
peptide: H[Aib]QGTFTSDLSKYLESRRARDFVQWLLK([AEEA-AEEA-γGlu-γGlu-γGlu-C18 diacid])T-NH2
modifications: N-terminus assumed
SMILES: CC(C)C[C@H](NC(=O)[C@H](Cc1ccc(O)cc1)NC(=O)[C@H](CCCCN)NC(=O)[C@H](CO)NC(=O)[C@H](CC(C)C)NC(=O)[C@H](CC(=O)O)NC(=O)[C@H](CO)NC(=O)[C@@H](NC(=O)[C@H](Cc1ccccc1)NC(=O)[C@@H](NC(=O)CNC(=O)[C@H](CCC(N)=O)NC(=O)C(C)(C)NC(=O)[C@@H](N)Cc1c[nH]cn1)[C@@H](C)O)[C@@H](C)O)C(=O)N[C@@H](CCC(=O)O)C(=O)N[C@@H](CO)C(=O)N[C@@H](CCCNC(=N)N)C(=O)N[C@@H](CCCNC(=N)N)C(=O)N[C@@H](C)C(=O)N[C@@H](CCCNC(=N)N)C(=O)N[C@@H](CC(=O)O)C(=O)N[C@@H](Cc1ccccc1)C(=O)N[C@H](C(=O)N[C@@H](CCC(N)=O)C(=O)N[C@@H](Cc1c[nH]c2ccccc12)C(=O)N[C@@H](CC(C)C)C(=O)N[C@@H](CC(C)C)C(=O)N[C@@H](CCCCNC(=O)COCCOCCNC(=O)COCCOCCNC(=O)CC[C@H](NC(=O)CC[C@H](NC(=O)CC[C@H](NC(=O)CCCCCCCCCCCCCCCCC(=O)O)C(=O)O)C(=O)O)C(=O)O)C(=O)N[C@H](C(N)=O)[C@@H](C)O)C(C)C
B3: N^ε16-[(4S)-4-carboxy-4-[[(4S)-4-carboxy-4-[[2-[2-[2-[[(4S)-4-carboxy-4-[[(4S)-4-carboxy-4-(17-carboxyheptadecanoylamino)butanoyl]amino]butanoyl]amino]ethoxy]et … (peptide)
peptide: H[Aib]QGTFTSDLSKYLDK([γGlu-γGlu-AEEA-γGlu-γGlu-C18 diacid])RRAQEFVQWLLNT-NH2
modifications: N-terminus assumed
SMILES: CC(C)C[C@H](NC(=O)[C@H](Cc1ccc(O)cc1)NC(=O)[C@H](CCCCN)NC(=O)[C@H](CO)NC(=O)[C@H](CC(C)C)NC(=O)[C@H](CC(=O)O)NC(=O)[C@H](CO)NC(=O)[C@@H](NC(=O)[C@H](Cc1ccccc1)NC(=O)[C@@H](NC(=O)CNC(=O)[C@H](CCC(N)=O)NC(=O)C(C)(C)NC(=O)[C@@H](N)Cc1c[nH]cn1)[C@@H](C)O)[C@@H](C)O)C(=O)N[C@@H](CC(=O)O)C(=O)N[C@@H](CCCCNC(=O)CC[C@H](NC(=O)CC[C@H](NC(=O)COCCOCCNC(=O)CC[C@H](NC(=O)CC[C@H](NC(=O)CCCCCCCCCCCCCCCCC(=O)O)C(=O)O)C(=O)O)C(=O)O)C(=O)O)C(=O)N[C@@H](CCCNC(=N)N)C(=O)N[C@@H](CCCNC(=N)N)C(=O)N[C@@H](C)C(=O)N[C@@H](CCC(N)=O)C(=O)N[C@@H](CCC(=O)O)C(=O)N[C@@H](Cc1ccccc1)C(=O)N[C@H](C(=O)N[C@@H](CCC(N)=O)C(=O)N[C@@H](Cc1c[nH]c2ccccc12)C(=O)N[C@@H](CC(C)C)C(=O)N[C@@H](CC(C)C)C(=O)N[C@@H](CC(N)=O)C(=O)N[C@H](C(N)=O)[C@@H](C)O)C(C)C
B4: N^ε16-[(4S)-4-carboxy-4-[[(4S)-4-carboxy-4-[[2-[2-[2-[[2-[2-[2-[[(4S)-4-carboxy-4-(17-carboxyheptadecanoylamino)butanoyl]amino]ethoxy]ethoxy]acetyl]amino]ethoxy … (peptide)
peptide: H[Aib]QGTFTSDLSKYLDK([γGlu-γGlu-AEEA-AEEA-γGlu-C18 diacid])RRAREFVQWLLNT-NH2
modifications: N-terminus assumed
SMILES: CC(C)C[C@H](NC(=O)[C@H](Cc1ccc(O)cc1)NC(=O)[C@H](CCCCN)NC(=O)[C@H](CO)NC(=O)[C@H](CC(C)C)NC(=O)[C@H](CC(=O)O)NC(=O)[C@H](CO)NC(=O)[C@@H](NC(=O)[C@H](Cc1ccccc1)NC(=O)[C@@H](NC(=O)CNC(=O)[C@H](CCC(N)=O)NC(=O)C(C)(C)NC(=O)[C@@H](N)Cc1c[nH]cn1)[C@@H](C)O)[C@@H](C)O)C(=O)N[C@@H](CC(=O)O)C(=O)N[C@@H](CCCCNC(=O)CC[C@H](NC(=O)CC[C@H](NC(=O)COCCOCCNC(=O)COCCOCCNC(=O)CC[C@H](NC(=O)CCCCCCCCCCCCCCCCC(=O)O)C(=O)O)C(=O)O)C(=O)O)C(=O)N[C@@H](CCCNC(=N)N)C(=O)N[C@@H](CCCNC(=N)N)C(=O)N[C@@H](C)C(=O)N[C@@H](CCCNC(=N)N)C(=O)N[C@@H](CCC(=O)O)C(=O)N[C@@H](Cc1ccccc1)C(=O)N[C@H](C(=O)N[C@@H](CCC(N)=O)C(=O)N[C@@H](Cc1c[nH]c2ccccc12)C(=O)N[C@@H](CC(C)C)C(=O)N[C@@H](CC(C)C)C(=O)N[C@@H](CC(N)=O)C(=O)N[C@H](C(N)=O)[C@@H](C)O)C(C)C
B5: N^ε28-[2-[2-[2-[[2-[2-[2-[[(4S)-4-carboxy-4-[[(4S)-4-carboxy-4-[[(4S)-4-carboxy-4-(17-carboxyheptadecanoylamino)butanoyl]amino]butanoyl]amino]butanoyl]amino]eth … (peptide)
peptide: H[Aib]QGTFTSDLSKYLDARRARDFVQWLLK([AEEA-AEEA-γGlu-γGlu-γGlu-C18 diacid])T-NH2
modifications: N-terminus assumed
SMILES: CC(C)C[C@H](NC(=O)[C@H](Cc1ccc(O)cc1)NC(=O)[C@H](CCCCN)NC(=O)[C@H](CO)NC(=O)[C@H](CC(C)C)NC(=O)[C@H](CC(=O)O)NC(=O)[C@H](CO)NC(=O)[C@@H](NC(=O)[C@H](Cc1ccccc1)NC(=O)[C@@H](NC(=O)CNC(=O)[C@H](CCC(N)=O)NC(=O)C(C)(C)NC(=O)[C@@H](N)Cc1c[nH]cn1)[C@@H](C)O)[C@@H](C)O)C(=O)N[C@@H](CC(=O)O)C(=O)N[C@@H](C)C(=O)N[C@@H](CCCNC(=N)N)C(=O)N[C@@H](CCCNC(=N)N)C(=O)N[C@@H](C)C(=O)N[C@@H](CCCNC(=N)N)C(=O)N[C@@H](CC(=O)O)C(=O)N[C@@H](Cc1ccccc1)C(=O)N[C@H](C(=O)N[C@@H](CCC(N)=O)C(=O)N[C@@H](Cc1c[nH]c2ccccc12)C(=O)N[C@@H](CC(C)C)C(=O)N[C@@H](CC(C)C)C(=O)N[C@@H](CCCCNC(=O)COCCOCCNC(=O)COCCOCCNC(=O)CC[C@H](NC(=O)CC[C@H](NC(=O)CC[C@H](NC(=O)CCCCCCCCCCCCCCCCC(=O)O)C(=O)O)C(=O)O)C(=O)O)C(=O)N[C@H](C(N)=O)[C@@H](C)O)C(C)C

How the values were obtained:
[1] = target: T1, human GLP-1 receptor (human, UniProt P43220 24-463); test: cell-based or functional assay
[2] = target: T2, human glucagon receptor (human, UniProt P47871 26-477); test: cell-based or functional assay
[3] = target: T2, human glucagon receptor; test: displacement of 125I-glucagon, membranes with human glucagon receptor, SPA
Procedure: (§1) The receptor binding of each compound to the human glucagon receptor was measured in a displacement binding assay. […] Each derivative was added in a series of concentrations to isolated membranes containing the human glucagon receptor and displacement of the labelled ligand is monitored. The receptor binding was reported as the concentration at which half of the labelled ligand is displaced from the receptor, the IC₅₀ value.

[4] = target: T1, human GLP-1 receptor; test: displacement of 125I-GLP-1(7-36)NH2, membranes with human GLP-1R, SPA
Procedure: as §1, with “human GLP-1” for “human glucagon”, “ligand was” for “ligand is”

T2 sequence (P47871 26-477): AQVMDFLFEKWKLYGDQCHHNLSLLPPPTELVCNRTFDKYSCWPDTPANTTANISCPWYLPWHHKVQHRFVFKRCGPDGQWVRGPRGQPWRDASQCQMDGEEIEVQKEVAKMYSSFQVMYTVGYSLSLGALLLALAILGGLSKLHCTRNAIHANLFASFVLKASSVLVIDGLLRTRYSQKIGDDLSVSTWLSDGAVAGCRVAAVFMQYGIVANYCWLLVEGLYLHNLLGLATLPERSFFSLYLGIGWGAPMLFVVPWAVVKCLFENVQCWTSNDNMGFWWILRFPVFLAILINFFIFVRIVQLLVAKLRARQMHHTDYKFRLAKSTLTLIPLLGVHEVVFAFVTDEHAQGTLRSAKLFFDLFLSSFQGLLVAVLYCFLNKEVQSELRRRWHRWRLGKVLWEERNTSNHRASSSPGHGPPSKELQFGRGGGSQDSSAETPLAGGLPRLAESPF

Row | Binder | EC50 GLP-1R, CRE luciferase reporter gene assay in BHK cells [1] | EC50 GlucR, CRE luciferase reporter gene assay in BHK cells [2] | IC50 [3] | IC50 [4]
1 | B1 | 32.7 pM | 6.8 pM | 1.9 nM | 3.9 nM
2 | B2 | 3 pM | 129 pM | 19 nM | 0.2 nM
3 | B3 | 26.6 pM | 58.8 pM | 5.9 nM | 1.4 nM
4 | B4 | 9.2 pM | 42.3 pM | 1.2 nM | 0.5 nM
5 | B5 | 4.3 pM | 11.3 pM | 2.6 nM | 0.2 nM

Reference: US20150374794A1 (Novo Nordisk, published 2015)
